Laboratory results reported in US20110059851A1 (MOUNT SINAI SCHOOL OF MEDICINE OF NEW YORK UNIVERSITY, published 2011).

Target: T1, V5-tagged SHOC2^S2G (human SHOC2 Ser2Gly mutant) (human, UniProt Q5RAV5 1-582 (Pongo abelii entry), limits assumed, N-myristoylation at the N-terminal glycine (Gly 2) after excision of the initiator methionine; [3H]myristic acid incorporation shown in Cos-1 cells)
T1 construct: Expressed transiently in Cos-1 cells, with human NMT1 co-transfected, from a V5-tagged human SHOC2 cDNA construct made by site-directed mutagenesis; Tested in cell lysates by co-immunoprecipitation; also called mutant SHOC2; not shown: V5 tag
T1 sequence: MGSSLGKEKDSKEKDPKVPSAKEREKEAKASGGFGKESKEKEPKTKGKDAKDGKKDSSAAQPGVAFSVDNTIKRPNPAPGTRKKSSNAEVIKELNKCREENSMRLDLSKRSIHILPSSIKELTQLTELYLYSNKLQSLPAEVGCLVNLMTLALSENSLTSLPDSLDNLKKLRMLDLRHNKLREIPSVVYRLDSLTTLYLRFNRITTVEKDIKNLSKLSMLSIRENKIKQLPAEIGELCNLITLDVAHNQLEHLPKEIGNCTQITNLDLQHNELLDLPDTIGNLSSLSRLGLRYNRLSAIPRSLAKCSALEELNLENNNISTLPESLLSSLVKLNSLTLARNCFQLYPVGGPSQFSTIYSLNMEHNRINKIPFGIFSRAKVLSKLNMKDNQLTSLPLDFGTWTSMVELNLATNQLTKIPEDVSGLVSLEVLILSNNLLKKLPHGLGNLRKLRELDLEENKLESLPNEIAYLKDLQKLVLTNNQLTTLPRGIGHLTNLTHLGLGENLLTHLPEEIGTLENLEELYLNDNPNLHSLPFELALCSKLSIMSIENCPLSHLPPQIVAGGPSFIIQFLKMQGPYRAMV
Test: co-immunoprecipitation (anti-Myc or anti-V5, western blot) and confocal microscopy in COS-1 cells co-transfected with V5- and Myc-tagged proteins

B1: Myc-tagged SHOC2^wt (wild-type human SHOC2) (other)
chain: MSSSLGKEKDSKEKDPKVPSAKEREKEAKASGGFGKESKEKEPKTKGKDAKDGKKDSSAAQPGVAFSVDNTIKRPNPAPGTRKKSSNAEVIKELNKCREENSMRLDLSKRSIHILPSSIKELTQLTELYLYSNKLQSLPAEVGCLVNLMTLALSENSLTSLPDSLDNLKKLRMLDLRHNKLREIPSVVYRLDSLTTLYLRFNRITTVEKDIKNLSKLSMLSIRENKIKQLPAEIGELCNLITLDVAHNQLEHLPKEIGNCTQITNLDLQHNELLDLPDTIGNLSSLSRLGLRYNRLSAIPRSLAKCSALEELNLENNNISTLPESLLSSLVKLNSLTLARNCFQLYPVGGPSQFSTIYSLNMEHNRINKIPFGIFSRAKVLSKLNMKDNQLTSLPLDFGTWTSMVELNLATNQLTKIPEDVSGLVSLEVLILSNNLLKKLPHGLGNLRKLRELDLEENKLESLPNEIAYLKDLQKLVLTNNQLTTLPRGIGHLTNLTHLGLGENLLTHLPEEIGTLENLEELYLNDNPNLHSLPFELALCSKLSIMSIENCPLSHLPPQIVAGGPSFIIQFLKMQGPYRAMV
notes: Expressed transiently in Cos-1 cells from a Myc-tagged human SHOC2 cDNA construct and tested in cell lysates by co-immunoprecipitation; also called wild type SHOC2; wild-type protein; not shown: Myc tag
binding result: no binding
